Measured values: PMC9482650, “Quantitative fragmentomics allow affinity mapping of interactomes” (Nature Communications, 2022)

T1: DLG3_3, Q92796
T1 sequence (Q92796 374-475, limits assumed, looked up): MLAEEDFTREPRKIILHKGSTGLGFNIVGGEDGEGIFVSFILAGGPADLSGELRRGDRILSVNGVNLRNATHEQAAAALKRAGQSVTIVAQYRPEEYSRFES

T2: RADIL, Q96JH8
T2 sequence (Q96JH8 971-1071, limits assumed, looked up): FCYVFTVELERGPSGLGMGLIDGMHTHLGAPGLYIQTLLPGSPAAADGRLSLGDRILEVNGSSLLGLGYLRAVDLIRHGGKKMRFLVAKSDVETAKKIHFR

T3: MPDZ_5, O75970
T3 sequence (O75970 695-796, limits assumed, looked up): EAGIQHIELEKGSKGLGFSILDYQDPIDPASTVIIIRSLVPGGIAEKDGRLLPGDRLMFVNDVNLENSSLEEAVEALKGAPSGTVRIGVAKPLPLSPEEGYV

T4: GRIP1_5, Q9Y3R0
T4 sequence (Q9Y3R0 568-668, limits assumed, looked up): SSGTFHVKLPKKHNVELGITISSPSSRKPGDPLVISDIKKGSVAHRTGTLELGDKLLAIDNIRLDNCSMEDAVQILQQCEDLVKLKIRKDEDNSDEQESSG

T5: LIN7A, O14910
T5 sequence (O14910 103-200, limits assumed, looked up): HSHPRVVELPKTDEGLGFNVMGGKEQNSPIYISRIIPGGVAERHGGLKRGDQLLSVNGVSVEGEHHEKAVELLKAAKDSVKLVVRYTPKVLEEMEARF

T6: SHANK1, Q9Y566
T6 sequence (Q9Y566 658-767, limits assumed, looked up): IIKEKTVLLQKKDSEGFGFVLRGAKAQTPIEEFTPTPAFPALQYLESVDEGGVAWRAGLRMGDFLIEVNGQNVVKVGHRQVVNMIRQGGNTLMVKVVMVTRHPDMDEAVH

T7: APBA1_1, Q02410
T7 sequence (Q02410 651-752, limits assumed, looked up): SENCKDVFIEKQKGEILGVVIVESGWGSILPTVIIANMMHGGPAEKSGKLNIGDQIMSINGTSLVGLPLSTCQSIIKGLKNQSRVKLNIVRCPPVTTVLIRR

T8: DLG3_2, Q92796
T8 sequence (Q92796 221-321, limits assumed, looked up): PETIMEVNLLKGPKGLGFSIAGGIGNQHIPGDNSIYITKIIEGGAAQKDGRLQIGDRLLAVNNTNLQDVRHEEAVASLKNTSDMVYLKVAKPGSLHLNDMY

T9: SIPA1L2, Q9P2F8
T9 sequence (Q9P2F8 945-1036, limits assumed, looked up): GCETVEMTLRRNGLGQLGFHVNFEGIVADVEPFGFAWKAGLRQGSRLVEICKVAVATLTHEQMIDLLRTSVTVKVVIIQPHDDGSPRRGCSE

T10: MPP6, Q9NZW5
T10 sequence (Q9NZW5 125-219, limits assumed, looked up): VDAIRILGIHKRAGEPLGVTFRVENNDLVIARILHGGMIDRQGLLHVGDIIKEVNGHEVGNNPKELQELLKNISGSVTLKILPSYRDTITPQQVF


Columns and labels:
Assay in all cases: holdup assay
Parameters in all cases: key: below the threshold = too weak to quantify, mostly under pKd 3.1 to 4
Conditions in all cases: plain residues with an end cap or a label only (N-terminal biotin on a linker: ado-ado)
[1] = target: SCRIB_2, Q14160
Chain of SCRIB_2, Q14160 (Q14160 857-960): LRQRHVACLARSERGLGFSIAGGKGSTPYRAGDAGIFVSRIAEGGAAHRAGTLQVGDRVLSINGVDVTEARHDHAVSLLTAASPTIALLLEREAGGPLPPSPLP

[2] = target: TJP2_1, Q9UDY2
Chain of TJP2_1, Q9UDY2 (Q9UDY2 24-128): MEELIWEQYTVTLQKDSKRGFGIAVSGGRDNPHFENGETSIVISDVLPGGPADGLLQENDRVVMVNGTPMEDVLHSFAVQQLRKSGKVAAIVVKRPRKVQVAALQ

[3] = target: SCRIB_3, Q14160
Chain of SCRIB_3, Q14160 (Q14160 999-1103): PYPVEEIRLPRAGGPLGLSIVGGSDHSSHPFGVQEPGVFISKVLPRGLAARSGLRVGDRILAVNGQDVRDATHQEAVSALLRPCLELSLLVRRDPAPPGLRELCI

[4] = target: T1, DLG3_3, Q92796
[5] = target: T2, RADIL, Q96JH8
[6] = target: DLG4_3, P78352
Chain of DLG4_3, P78352 (P78352 306-403): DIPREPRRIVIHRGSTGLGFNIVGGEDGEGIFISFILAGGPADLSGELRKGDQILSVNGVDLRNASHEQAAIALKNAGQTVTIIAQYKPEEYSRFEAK

[7] = target: T3, MPDZ_5, O75970
[8] = target: T4, GRIP1_5, Q9Y3R0
[9] = target: T5, LIN7A, O14910
[10] = target: DLG5_1, Q8TDM6
Chain of DLG5_1, Q8TDM6 (Q8TDM6 617-713): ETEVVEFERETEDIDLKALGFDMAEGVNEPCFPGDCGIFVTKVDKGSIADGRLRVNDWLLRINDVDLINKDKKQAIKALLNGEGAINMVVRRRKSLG

[11] = target: T6, SHANK1, Q9Y566
[12] = target: PDLIM1, O00151
Chain of PDLIM1, O00151 (O00151 1-87): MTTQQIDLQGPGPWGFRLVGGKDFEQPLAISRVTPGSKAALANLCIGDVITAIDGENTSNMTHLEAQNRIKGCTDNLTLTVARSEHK

[13] = target: MAGI2_2, Q86UL8
Chain of MAGI2_2, Q86UL8 (Q86UL8 410-522): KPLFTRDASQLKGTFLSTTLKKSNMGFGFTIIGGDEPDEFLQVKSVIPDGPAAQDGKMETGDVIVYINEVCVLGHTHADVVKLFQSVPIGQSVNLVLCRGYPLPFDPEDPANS

[14] = target: ARHGEF12, Q9NZN5-2
Chain of ARHGEF12, Q9NZN5-2 (Q9NZN5 other isoform, or with tags, fused parts or gaps): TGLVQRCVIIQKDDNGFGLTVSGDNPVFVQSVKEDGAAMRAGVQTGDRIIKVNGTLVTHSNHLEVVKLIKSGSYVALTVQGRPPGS

[15] = target: MAGI3_2, Q5TCQ9
Chain of MAGI3_2, Q5TCQ9 (Q5TCQ9 398-503): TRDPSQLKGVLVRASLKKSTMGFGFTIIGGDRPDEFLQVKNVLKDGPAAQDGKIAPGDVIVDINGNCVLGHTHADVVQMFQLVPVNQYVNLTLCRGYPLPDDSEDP

[16] = target: T7, APBA1_1, Q02410
[17] = target: LDB3, O75112
Chain of LDB3, O75112 (O75112 1-94): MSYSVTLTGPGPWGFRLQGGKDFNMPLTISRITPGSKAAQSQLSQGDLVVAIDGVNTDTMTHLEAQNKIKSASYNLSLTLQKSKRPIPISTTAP

[18] = target: T8, DLG3_2, Q92796
[19] = target: MAGI1_2, Q96QZ7
Chain of MAGI1_2, Q96QZ7 (Q96QZ7 456-580): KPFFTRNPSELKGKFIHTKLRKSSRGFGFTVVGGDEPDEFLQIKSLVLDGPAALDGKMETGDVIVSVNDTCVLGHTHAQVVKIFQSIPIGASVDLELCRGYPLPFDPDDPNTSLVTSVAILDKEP

[20] = target: TJP1_2, Q07157
Chain of TJP1_2, Q07157 (Q07157 181-274): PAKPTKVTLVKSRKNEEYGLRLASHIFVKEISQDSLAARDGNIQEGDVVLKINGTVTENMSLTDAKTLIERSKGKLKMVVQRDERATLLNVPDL

[21] = target: T9, SIPA1L2, Q9P2F8
[22] = target: FRMPD4, Q14CM0
Chain of FRMPD4, Q14CM0 (Q14CM0 67-160): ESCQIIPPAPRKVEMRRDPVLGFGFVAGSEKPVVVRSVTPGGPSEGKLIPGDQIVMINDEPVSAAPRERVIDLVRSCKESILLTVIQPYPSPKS

[23] = target: GRASP, Q7Z6J2
Chain of GRASP, Q7Z6J2 (Q7Z6J2 96-193): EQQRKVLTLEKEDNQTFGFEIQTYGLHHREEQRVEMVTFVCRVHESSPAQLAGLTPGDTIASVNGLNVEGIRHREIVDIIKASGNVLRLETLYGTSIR

[24] = target: DLG2_2, Q15700
Chain of DLG2_2, Q15700 (Q15700 189-283): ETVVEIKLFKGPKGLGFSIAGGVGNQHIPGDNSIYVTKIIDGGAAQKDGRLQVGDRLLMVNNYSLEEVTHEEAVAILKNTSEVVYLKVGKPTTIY

[25] = target: MAGI2_3, Q86UL8
Chain of MAGI2_3, Q86UL8 (Q86UL8 600-682): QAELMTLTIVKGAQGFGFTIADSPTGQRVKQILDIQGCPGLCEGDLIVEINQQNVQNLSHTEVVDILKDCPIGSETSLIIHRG

[26] = target: IL16_1, Q14005
Chain of IL16_1, Q14005 (Q14005 210-306): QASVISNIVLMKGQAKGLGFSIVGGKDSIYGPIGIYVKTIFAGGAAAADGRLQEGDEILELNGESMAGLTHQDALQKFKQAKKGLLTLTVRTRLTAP

[27] = target: T10, MPP6, Q9NZW5
[28] = target: GORASP2, Q9H8Y8

| Binder | pKd [1] | pKd [2] | pKd [3] | pKd [4] | pKd [5] | pKd [6] | pKd [7] | pKd [8] | pKd [9] | pKd [10] | pKd [11] | pKd [12] | pKd [13] | pKd [14] | pKd [15] | pKd [16] | pKd [17] | pKd [18] | pKd [19] | pKd [20] | also measured |
| --- | --- | --- | --- | --- | --- | --- | --- | --- | --- | --- | --- | --- | --- | --- | --- | --- | --- | --- | --- | --- | --- |
| RGKNRRQSIF [CDK18, Q07002] | below the threshold | 3.47 | 3.65 | 3.71 | below the threshold | 3.7 | below the threshold | below the threshold | below the threshold | below the threshold | below the threshold | below the threshold | below the threshold | below the threshold | below the threshold | below the threshold | below the threshold | 4.19 | 3.91 | below the threshold | pKd [21]: below the threshold; pKd [22]: 3.65; pKd [23]: 3.81; pKd [24]: 3.5; pKd [25]: 3.64; pKd [26]: below the threshold; pKd [27]: below the threshold; pKd [28]: 3.87 |
| NKSEPFLTWL [WWTR1, Q9GZV5] | below the threshold | 5.59 | 5.14 | below the threshold | 5.57 | below the threshold | below the threshold | below the threshold | below the threshold | below the threshold | 5.29 | 4.13 | 3.57 | 4.95 | 3.89 | 4.11 | 4.47 | below the threshold | 3.51 | below the threshold | pKd [21]: below the threshold; pKd [22]: 5.15; pKd [23]: 5.28; pKd [24]: below the threshold; pKd [25]: 3.48; pKd [26]: below the threshold; pKd [27]: 3.9; pKd [28]: 4.9 |
| QLGSPTADLA [SIPA1, Q96FS4] | below the threshold | below the threshold | below the threshold | below the threshold | below the threshold | below the threshold | below the threshold | below the threshold | below the threshold | below the threshold | below the threshold | below the threshold | below the threshold | below the threshold | below the threshold | below the threshold | below the threshold | 4.06 | below the threshold | below the threshold | pKd [21]: below the threshold; pKd [22]: below the threshold; pKd [23]: below the threshold; pKd [24]: below the threshold; pKd [25]: 3.56; pKd [26]: below the threshold; pKd [27]: below the threshold; pKd [28]: below the threshold |
| PSVYSRSQYV [CLDN8, P56748] | below the threshold | 4.87 | below the threshold | below the threshold | 5.17 | below the threshold | 4.18 | below the threshold | below the threshold | below the threshold | below the threshold | below the threshold | below the threshold | 4.19 | 3.52 | below the threshold | below the threshold | 3.74 | below the threshold | below the threshold | pKd [21]: below the threshold; pKd [22]: below the threshold; pKd [23]: 3.51; pKd [24]: below the threshold; pKd [25]: below the threshold; pKd [26]: below the threshold; pKd [27]: below the threshold; pKd [28]: 4.88 |
| GDSSRKEYFI [GYPC, P04921] | 3.69 | below the threshold | 4.13 | below the threshold | 4.43 | below the threshold | 4.66 | below the threshold | below the threshold | below the threshold | below the threshold | below the threshold | 3.6 | below the threshold | 4.41 | 3.65 | below the threshold | 4.19 | below the threshold | below the threshold | pKd [21]: below the threshold; pKd [22]: below the threshold; pKd [23]: below the threshold; pKd [24]: below the threshold; pKd [25]: below the threshold; pKd [26]: below the threshold; pKd [27]: 4.7; pKd [28]: 4.61 |
